# ± gives the half width of the 95% confidence interval.
# What was measured:
# [1] = folding stability dG unfold from trypsin proteolysis; higher = more stable
# Summary of the method: (§1)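 Digests were run with trypsin and chymotrypsin at 11 concentrations in threefold dilutions, plus a no-protease condition, on designed mini-proteins in a PA-tagged cDNA display construct. The mini-proteins were under 80 residues, had no cysteine, and were kept only when AlphaFold2 dimer inter-PAE was above 15. After sequencing, Bayesian fitting of the counts gave K50, from which unfolding free energy was derived against a sequence-predicted unfolded-state K50 and a shared folded-state K50, per protease or combined.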
# [2] = folding stability dG unfold from chymotrypsin proteolysis; higher = more stable
# Summary of the method: as §1
# [3] = folding stability dG unfold (combined trypsin and chymotrypsin); higher = more stable
# Summary of the method: as §1
Sequence,folding stability dG unfold [1],folding stability dG unfold [2],folding stability dG unfold [3]
SAGVEELFRRLGAEVSVTRRPDGSLVVTFRLPDGRTIVVFVTPDGVRVVVVDPSGERRTLSLEDLKRLASAG [r14_578_TrMRF],14.1 ± 0.247 kJ/mol,17.15 ± 0.146 kJ/mol,16 ± 0.243 kJ/mol
SAGGSAGGSAGGPLKLKVKLKLEFEVKDENGKTSKVELEVELEVELPEIVLDKNGKLLLSAGGSAGGSAGGS [r10_168_TrROS_Hall],10.1 ± 0.381 kJ/mol,14.2 ± 1.09 kJ/mol,12.3 ± 1.34 kJ/mol
SAGKSIKIPYIIRFPSPNGEPHLMRIKEVTINPKPGMVKIKFQMPGKKQTHTVPPNNIEILPDPEEILKSAG [r5_15_TrROS],0.484 ± 0.92 kJ/mol,-0.118 ± 1.38 kJ/mol,-0.0905 ± 1.21 kJ/mol
SAGGSAGGELEVEIVSVEFDEETKEIRIKIYVNGKLIEEKTIKIEPVKVYYKTKDGKKVSAEDLSAGGSAGG [r6_832_TrROS_Hall],4.59 ± 0.372 kJ/mol,4.87 ± 1.09 kJ/mol,4.19 ± 0.795 kJ/mol
SANPGKPVTIEIPVEEIRQKLNEENPDKPLTPSELKDLAKELIQRQGFPFKDVEIKSVNPGNGWIKIKVSAG [r14_303_TrROS],3.64 ± 0.397 kJ/mol,-2.25 ± 1.8 kJ/mol,1.17 ± 2.09 kJ/mol
SAGMEVEWEIGDADEDGYVRLTVKAVLLIPETGKPVVVEAEIKMPIEELENEEVLKELARKVVEEAEAESAG [r5_964_TrMRF],5.85 ± 0.155 kJ/mol,8.81 ± 0.134 kJ/mol,7.75 ± 0.36 kJ/mol
SAGGKIKIRNPKTGLIVEVLEYNPETGKFKVKVTFPDGSVEEKEFPGSLEDLIEWLESEGFPFEVEGSAGGS [r16_748_TrMRF],9.45 ± 0.544 kJ/mol,15.6 ± 0.544 kJ/mol,14.1 ± 0.669 kJ/mol
SAGKKSTLTIDLPGSTVTLTYDPATGKVRITVNLGVAVAGIDPETGKPGIVTGSVTLEADIDVPPGAPISAG [r5_195_TrMRF],10.9 ± 0.669 kJ/mol,11.2 ± 0.238 kJ/mol,11.1 ± 0.628 kJ/mol
SAGGSAGGSSMTITVTDLVTGEPGEIPEELKAELAAEAEESGSAVTFEITTPDGKKYRAEITPSAGGSAGGS [r12_41_JUSTAS],3.88 ± 0.121 kJ/mol,4.73 ± 0.368 kJ/mol,4.61 ± 0.418 kJ/mol
SAGGSAGGSSGTVTLRLRFRVVDLDPATGEASEHEFELTLTVPIELPAAAPPATPTYGLTLPGSAGGSAGGS [r12_140_TrMRF],3.75 ± 0.502 kJ/mol,11.7 ± 0.31 kJ/mol,9.98 ± 0.669 kJ/mol
SAGGSLKDMPVEDLAKYFARKMGYPITDVKVERNPDPPWIKINIEMEHPNDGRRHPHEIWIPKDDISAGGSA [r2_156_TrROS],2.21 ± 0.259 kJ/mol,5.42 ± 0.46 kJ/mol,4.16 ± 0.347 kJ/mol
SAGGSAGGKITITLPGAEIVSVEESEDGKTITITVRLENGELLKITLKRVNGKWYITKIELLKPSAGGSAGG [r6_718_TrROS_Hall],14.8 ± 0.36 kJ/mol,18.93 ± 0.159 kJ/mol,18.2 ± 0.285 kJ/mol
SAGMKLTVTITDPATGKTYTITVKPGGETTVTNGSSTTSISIPTSDPKKVEELAEEIEPKGYTATITLESAG [r5_791_JUSTAS],4.88 ± 0.0753 kJ/mol,5.68 ± 0.711 kJ/mol,5.45 ± 0.36 kJ/mol
SAGGSAGGSAGKEIIKNIPKGVKVLKIEPLPGKSGTYVKIEVEFPDPNGVKHRLTFIAPESAGGSAGGSAGG [r17_140_TrMRF],2.8 ± 0.628 kJ/mol,5.63 ± 0.586 kJ/mol,4.84 ± 0.962 kJ/mol
SAGGMTITVRVKAENPEEAIKKVEETVRSLGYRVVELKEVEVRYDEATGEVFVEATVEVEPLPEEEGSAGGS [r16_155_TrMRF],18.3 ± 0.544 kJ/mol,20.1 ± 0.502 kJ/mol,20.1 ± 0.502 kJ/mol
SAGGRIRIEYDPENGTITIYVPTPDGEITPDQVEEIAKLLMELWPNIEVEIEPHPNGMVRITIKIPPKSAGG [r13_291_TrROS],12.6 ± 0.795 kJ/mol,16 ± 0.962 kJ/mol,14.8 ± 0.795 kJ/mol
SAGGSAGGGGSSMTIVDPKDVPFGQTFTVTTYAPGGKKISTTTLTVDVPPPVWRTDGNGKWFLESAGGSAGG [r6_487_JUSTAS],0.684 ± 0.795 kJ/mol,1.17 ± 1.13 kJ/mol,1.67 ± 0.837 kJ/mol

# — the supplement of paper PMC12764529
